From article PMC9889268

Molecular target: wild-type ClbP (Escherichia coli CFT073) (UniProt Q0P7K6)
Assay: cryo-EM structure; single-particle cryo-EM of detergent-solubilised ClbP; 10 mM HEPES pH 7.3, 200 mM NaCl, 0.06% GDN; 3.5 mg/ml; C2 symmetry imposed

“wild-type ClbP (from UniProt Q0P7K6 1-504) (enzyme)” showed a stoichiometry N of 2.
